# Data: the supplement of paper PMC9112550, “Optimization of the antimicrobial peptide Bac7 by deep mutational scanning” (BMC Biology, 2022)
# Tested on: Escherichia coli TOP10
# Test: shrunken log2 fold change of peptide-encoding DNA abundance (4.5 h post-induction vs induction); higher = less antimicrobial activity (less host growth inhibition)
# Conditions: time post-induction: 4.5 h; library: site-saturation at positions 5, 18, 19, 20
# 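Note: peptides expressed intracellularly from a pBAD plasmid library in pooled LB shake-flask culture, induced with 0.3% L-arabinose, DNA abundance read by NGS, three biological replicates, DESeq2 with apeglm shrinkage.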
row,Sequence,shrunken log2 fold change
1,RRIRARPPRLPRPRPRPIQSPRP,-0.035
2,RRIRMRPPRLPRPRPRPQQFPRP,0.359
3,RRIRDRPPRLPRPRPRPPESPRP,0.822
4,RRIRIRPPRLPRPRPRPYWTPRP,-0.18
5,RRIRWRPPRLPRPRPRPINRPRP,-0.328
6,RRIRGRPPRLPRPRPRPNMMPRP,0.0511
7,RRIRLRPPRLPRPRPRPWSQPRP,-0.145
8,RRIRKRPPRLPRPRPRPQEYPRP,-0.0576
9,RRIRQRPPRLPRPRPRPTCQPRP,-0.125
10,RRIRHRPPRLPRPRPRPQWIPRP,-0.031
11,RRIRLRPPRLPRPRPRPVKLPRP,-0.473
12,RRIRYRPPRLPRPRPRPLQCPRP,-0.344
13,RRIRCRPPRLPRPRPRPIYEPRP,-0.576
14,RRIRCRPPRLPRPRPRPSDEPRP,-0.126
15,RRIRKRPPRLPRPRPRPFDWPRP,0.243
16,RRIRYRPPRLPRPRPRPVDLPRP,0.0483
17,RRIRFRPPRLPRPRPRPAMWPRP,0.0848
18,RRIRKRPPRLPRPRPRPWTTPRP,-0.0228
19,RRIRVRPPRLPRPRPRPALFPRP,0.175
20,RRIRPRPPRLPRPRPRPDCVPRP,-0.0187
21,RRIRDRPPRLPRPRPRPTTMPRP,0.0275
22,RRIRFRPPRLPRPRPRPIAGPRP,0.0541

row,Sequence,shrunken log2 fold change
1,RRIRSRPPRLPRPRPRPIKFPRP,-0.0229
2,RRIRVRPPRLPRPRPRPSVEPRP,-0.0446
3,RRIRSRPPRLPRPRPRPIILPRP,-0.617
4,RRIRWRPPRLPRPRPRPYFNPRP,-1.06
5,RRIRDRPPRLPRPRPRPKTCPRP,0.00179
6,RRIRERPPRLPRPRPRPHLSPRP,-0.19
7,RRIRPRPPRLPRPRPRPSCAPRP,0.0332
8,RRIRRRPPRLPRPRPRPYMWPRP,-0.374
9,RRIRERPPRLPRPRPRPPNDPRP,-0.462
10,RRIRDRPPRLPRPRPRPKCVPRP,0.104
11,RRIRTRPPRLPRPRPRPWMDPRP,-0.13
12,RRIRGRPPRLPRPRPRPCVEPRP,0.953
13,RRIRMRPPRLPRPRPRPPKRPRP,1.05
14,RRIRWRPPRLPRPRPRPVYGPRP,-0.083
15,RRIRTRPPRLPRPRPRPSFGPRP,0.129
16,RRIRCRPPRLPRPRPRPEQPPRP,0.581
17,RRIRWRPPRLPRPRPRPRPDPRP,0.518
18,RRIRYRPPRLPRPRPRPGSYPRP,-0.349
19,RRIRYRPPRLPRPRPRPIQIPRP,-0.409
20,RRIRARPPRLPRPRPRPQWFPRP,0.0925
21,RRIRQRPPRLPRPRPRPCCAPRP,0.0773
22,RRIRHRPPRLPRPRPRPSINPRP,-0.605

row,Sequence,shrunken log2 fold change
1,RRIRCRPPRLPRPRPRPKFPPRP,-0.0293
2,RRIRPRPPRLPRPRPRPWRAPRP,0.185
3,RRIRGRPPRLPRPRPRPKSWPRP,0.925
4,RRIRIRPPRLPRPRPRPKYHPRP,-0.532
5,RRIRYRPPRLPRPRPRPDPQPRP,-0.0137
6,RRIRHRPPRLPRPRPRPYPGPRP,-0.216
7,RRIRCRPPRLPRPRPRPIQKPRP,-0.127
8,RRIRQRPPRLPRPRPRPMSSPRP,-0.0871
9,RRIRYRPPRLPRPRPRPGLRPRP,0.0396
10,RRIRGRPPRLPRPRPRPAECPRP,0.196
11,RRIRSRPPRLPRPRPRPRCFPRP,0.165
12,RRIRPRPPRLPRPRPRPMNDPRP,-0.329
13,RRIRIRPPRLPRPRPRPYSHPRP,-0.941
14,RRIRRRPPRLPRPRPRPQFMPRP,-0.139
15,RRIRFRPPRLPRPRPRPMENPRP,-0.0803
16,RRIRRRPPRLPRPRPRPIVMPRP,-0.0167
17,RRIRHRPPRLPRPRPRPHTGPRP,-0.226
18,RRIRYRPPRLPRPRPRPLLCPRP,-0.287
19,RRIRTRPPRLPRPRPRPKDTPRP,-0.076
20,RRIRLRPPRLPRPRPRPWAMPRP,-0.0431
21,RRIRVRPPRLPRPRPRPIDNPRP,-0.447
22,RRIRTRPPRLPRPRPRPTNYPRP,-0.857

row,Sequence,shrunken log2 fold change
1,RRIRCRPPRLPRPRPRPDCAPRP,0.515
2,RRIRSRPPRLPRPRPRPVPLPRP,-0.0843
3,RRIRNRPPRLPRPRPRPNSRPRP,-0.266
4,RRIRRRPPRLPRPRPRPHWIPRP,0.0716
5,RRIRYRPPRLPRPRPRPTIAPRP,-0.338
6,RRIRMRPPRLPRPRPRPAWCPRP,3.93
7,RRIRARPPRLPRPRPRPACPPRP,0.255
8,RRIRKRPPRLPRPRPRPSKTPRP,0.0486
9,RRIRVRPPRLPRPRPRPCMLPRP,-0.606
10,RRIRLRPPRLPRPRPRPDRYPRP,-0.063
11,RRIRPRPPRLPRPRPRPNVPPRP,-0.11
12,RRIRFRPPRLPRPRPRPDDVPRP,-0.0133
13,RRIRTRPPRLPRPRPRPLNMPRP,0.00244
14,RRIRLRPPRLPRPRPRPRVQPRP,-0.143
15,RRIRIRPPRLPRPRPRPCVVPRP,-0.00586
16,RRIRWRPPRLPRPRPRPDDLPRP,-0.024
17,RRIRKRPPRLPRPRPRPPNLPRP,0.492
18,RRIRQRPPRLPRPRPRPQGLPRP,0.0739
19,RRIRARPPRLPRPRPRPKNIPRP,-0.127
20,RRIRWRPPRLPRPRPRPLAAPRP,0.994
21,RRIRKRPPRLPRPRPRPGNAPRP,0.418
22,RRIRLRPPRLPRPRPRPYYAPRP,-0.484

row,Sequence,shrunken log2 fold change
1,RRIRDRPPRLPRPRPRPTPDPRP,0.536
2,RRIRNRPPRLPRPRPRPVPCPRP,-0.237
3,RRIRYRPPRLPRPRPRPFPAPRP,-0.467
4,RRIRARPPRLPRPRPRPLNRPRP,0.0549
5,RRIRGRPPRLPRPRPRPQGLPRP,0.335
6,RRIRHRPPRLPRPRPRPGRDPRP,0.135
7,RRIRGRPPRLPRPRPRPTCTPRP,0.975
8,RRIRTRPPRLPRPRPRPEMTPRP,0.0523
9,RRIRPRPPRLPRPRPRPAWVPRP,0.401
10,RRIRRRPPRLPRPRPRPNWNPRP,-0.115
11,RRIRVRPPRLPRPRPRPYDPPRP,-0.468
12,RRIRLRPPRLPRPRPRPVPMPRP,-0.0969
13,RRIRPRPPRLPRPRPRPGPCPRP,0.363
14,RRIRKRPPRLPRPRPRPGPRPRP,1.08
15,RRIRSRPPRLPRPRPRPWHRPRP,-0.024
16,RRIRFRPPRLPRPRPRPPSAPRP,0.703
17,RRIRFRPPRLPRPRPRPLVLPRP,-0.251
18,RRIRWRPPRLPRPRPRPPAKPRP,0.56
19,RRIRVRPPRLPRPRPRPKKNPRP,0.28
20,RRIRARPPRLPRPRPRPPNAPRP,0.825
21,RRIRHRPPRLPRPRPRPYSWPRP,-0.345
